The assay deals with T1, macrophage migration-inhibitory factor (MIF), recombinant human, unlabelled (human, UniProt P14174 1-115).
T1 construct: human MIF; For some biophysical methods a 90-95% pure preparation was used; also called WT-MIF; human MIF
T1 sequence (looked up): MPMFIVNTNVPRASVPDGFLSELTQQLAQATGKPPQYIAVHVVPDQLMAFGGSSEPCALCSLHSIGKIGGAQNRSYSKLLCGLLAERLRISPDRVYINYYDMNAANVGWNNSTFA
Briefly: other fluorescence titration; Fluos-labelled CXCR4 ectodomain peptide at 5 nM titrated with unlabelled MIF, MIF(10xAla), CXCL12 or MIF peptide fragments; 10 mM sodium phosphate, pH 7.4, 1% HFIP; emission at 522 nm; apparent KD, 1/1 binding model. Conditions: both partners purified.

[ ]: non-standard residue; d: D form. Fluos = fluorescein label; Ahx = NCCCCCC(=O)O

B1: Fluos-[A^102, A^103, A^104, A^107, A^189, A^190, A^195]-msR4M-L1 (designed binder)
chain: Fluos-DAVANAAAGNALCK[Ahx][Ado]DRYICDRAAPNDLAV-NH2
modifications: cysteine pairing not given here
notes: The functional assays used the unlabelled peptide; also called Fluos-msR4M-L1(7xAla); source: synthetic peptide (Fmoc SPPS on Rink amide MBHA resin, RP-HPLC purified)
With B1, the Kd was > 1000 nM.

The values are drawn from article PMC7689490 (Nature Communications, 2020).
